Laboratory results as given in the supplement of paper PMC9170038.

Legend:
MS2 coat protein [1] = test: apparent KD of MS2 coat protein; designed switch direction (-1 OFF switch, 1 ON switch): 1; higher = weaker reporter binding; conditions: Eterna round: R98
Experimental: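 RNA-MaP: designed FMN/MS2 RNA switches (84 nt design region) are transcribed on-chip within common flanks and titrated with SNAP-549-labelled MS2 coat protein (about 1-3000 nM) in 100 mM Tris pH 7.5, 80 mM KCl, 4 mM MgCl2, without or with 200 uM FMN. Median apparent KD per design; activation ratio = KD,OFF / KD,ON.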

MS2 coat protein [2] = test: apparent KD of MS2 coat protein, switch ON state; designed switch direction (-1 OFF switch, 1 ON switch): 1; higher = weaker reporter binding; conditions: FMN input: 0 or 200 uM; Eterna round: R93 (includes R88 designs)
Outline: (§1)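 The buffer was 100 mM Tris-HCl pH 7.5 with 80 mM KCl and 4 mM MgCl2, used without or with constant ligand. In it, RNA switches transcribed on-chip from Illumina sequencing clusters were titrated with SNAP-549-labelled MS2 coat protein in twofold steps from 0.7 or 1.5 nM to 3 µM. Apparent KD for each design is the median of its normalised cluster binding-curve fits.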

MS2 coat protein [3] = test: apparent KD of MS2 coat protein, switch OFF state (with FMN for OFF switches, without FMN for ON switches); designed switch direction (-1 OFF switch, 1 ON switch): 1; higher = weaker reporter binding; conditions: FMN input: 0 or 200 uM; Eterna round: R93 (includes R88 designs)
Outline: as §1

Row | Sequence | apparent KD of MS2 coat protein (MS2 coat protein [1]; input ligand: FMN 200 uM) | apparent KD of MS2 coat protein (MS2 coat protein [1]; input ligand: none) | apparent KD of MS2 coat protein (MS2 coat protein [2]) | apparent KD of MS2 coat protein (MS2 coat protein [3])
1 | CAUGUCCUCACAGGAUAUGCACCACUUUGUGGUGCAGAAGGGUGGAAACAUGAGGAUCACCCAUGUGGACAUGAUAUAUUUAAU [Denovo 7] | 22.4 nM | 164 nM |  | 
2 | CUGCGAUUCUUAGGAUAUCGAGUGGAAUACACUCGAGAAGGAAGAAUAACCUGAGGAUCACCCAGGUAAUACUGAAGCAGAAUA [Same State NG1 - A3C, U17G Submission 9C] | 23.4 nM | 32.7 nM |  | 
3 | CAGCAAUUCUUAGGAUAUGCUCAGGAAUACUGAGCAGAAGGAAGAUAUACCUGAGGAUCACCCAGGUUAAACUGAAGCUGAAUA [Same State NG1 - A3C, U17G Submission 7B] | 17.4 nM | 15.7 nM |  | 
4 | UGAUCGCUUGGAGGAUAUCCAACUAUCAUAGUUGGAGAAGGCCAAGCUACAGAGCUAAGCUUGGAAGUCACUUCCGAUCAACAC [pwkr ssNG1 F9.4.3] | 49.7 nM | 59.1 nM |  | 
5 | AAAACAUGAGGAUCACCCAUGUAUAGAUCGGUUGUUAGGAGUGAGGAUAUGCUUAAAAUAAGGUAGCAGAAGGCACUGGGUACA [JR_SSNG3_Sub071] | 23.6 nM | 15.3 nM |  | 
6 | UGGAUGGUAUGAGGAUAUGCGCGCGAAACGCGCGCAGAAGGCAUGUCAAUAGACAUGAGGAUCACCCAUGUAUUAUCCAUCCAA [MatMod 9 - Jieux - Same State NG 1] | 39.4 nM | 300 nM |  | 
7 | GGUCCAUCAUGAGGAUAUGGCACCUUAUUGGUGCCAGAAGGCAUGUCUUUUGACAUGAGGAUCACCCAUGUAAUAAAUUGGACC [Pyrimidine booster 6] | 130 nM | 1920 nM |  | 
8 | AAGAUACUUACAGGAUAUAGGGCAGAGGGUGCCCUAGAAGGGUGAACAUGAGGAUCACCCAUGUAUGUAUCAGAUUAGAAGGCA [Inleesti] | 63.4 nM | 43.3 nM |  | 
9 | AGAAUGACAUGAGGAUCACCCAUGUUGGGAAAACCCGUAACUCAGGAUAUGUACGCGAAAGACCGACAGAAGGGAGAUCUACAC [Amaes] | 43.3 nM | 37.4 nM |  | 
10 | GGACGUCACAUUAACAUGAGGAUCACCCAUGUCAAAAGACAUGAGGAUAUGGAUCCUAAUUGGAUCCAGAAGGCAUGGACGUCC [EliMod 1 - Jieux - Same State NG 3] | 38.9 nM | 680 nM |  | 
11 | AUAGGUUAAGGAGGAUAUAGAGGGAGAAGUAAACAUGAGGAUCACCCAUGUAUUUAAUUAGUUUACUAGAAGGCUUGUGAUUGU | 50.9 nM | 45.9 nM |  | 
12 | CGAGACACUUGAGGAUAUGCUCAGGAUAACUGAGCAGAAGGCAGGAAAACCUGAGGAUCACCCAGGUAACUGGAAAGUCUCGAA [Same State NG1 - A3C, U17G Submission 5F-G46A] | 16.9 nM | 17.9 nM |  | 
13 | UCACUCACGUCAGGAUAUGGAUCGGAAAACGAUCCAGAAGGGACCUGCAAACGUGAGGAUCACCCACGUUCCAAUAACGAGUGA [SameSame 11 - Jieux - Same State NG 1] | 29.7 nM | 35.4 nM |  | 
14 | GUAGCAUACCGAGGAUAUUCAUAUAUGAAAAUAACAUGAGGAUCACCCAUGUGGCGAAAGCCUUGGGAGAAGGCGGAAUGCUAC [Xeinanis 75 22] | 34.4 nM | 490 nM |  | 
15 | CUGCAAUUCUUAGGAUAUGCUCAGGAUAACUGAGCAGAAGGAAGAUAUACCUGAGGAUCACCCAGGUUAAACUGGAGCAGAAUA [Same State NG1 - A3C, U17G Submission 8B] | 33.6 nM | 179 nM |  | 
16 | UAUAUAUGGUGAGGAUAUGCAAAGGAUCACCUUGUAGAAGGCAUCAGGGUAGAAGGUGCAAGGAUCACCUGUAAGGAUAUAUCC [pwkr2 ssNG1 DX.25] | 447 nM | 1560 nM |  | 
17 | GUGCACACUCGAGGAUAUCGGAGAUUUCUCCUUCGAGAAGGCGAUUCGUGCCGUGUUAUUCUGGACAUGAGGAUCACCCAUGUG [LRO026_SS NG 1 mod JR_SSNG1_Sub034] | 35.4 nM | 110 nM |  | 
18 | GCACUCAAGUUAGGAUAUGGAUCGGAAACCGAUCCAGAAGGAACACGAAAACAUGAGCAUCAGCCGUGUUCCAGAAACGAGUGC [SameSame 14 - Jieux - Same State NG 1] | 347 nM | 917 nM |  | 
19 | UUUACAUGAGGAUCACCCAUGUCUGUCACGCGUGUGUGCAAUCAGGAUAUGAUCUCAAGAAUGAAUUAGAAGGGAUAACGUGAG [Attempt 5] | 354 nM | 366 nM |  | 
20 | AGAAAUAAAACACAGGAUAUCCAAAAGAAAACAUGAGGAUCACCCAUGUAAAAGAAAAUAAAAUGGGAGAAGGGUGAAAAUAAAG [Breaking Jandersonlee's winner (80%)] |  |  | 38 nM | 52.6 nM

Row | Sequence | apparent KD of MS2 coat protein (MS2 coat protein [1]; input ligand: FMN 200 uM) | apparent KD of MS2 coat protein (MS2 coat protein [1]; input ligand: none) | apparent KD of MS2 coat protein (MS2 coat protein [2]) | apparent KD of MS2 coat protein (MS2 coat protein [3])
21 | AACAAUCUAUCUGAGGAUAUAUGUCAAAAGACAUGAGGAUCACCCAUGUAAAAACAUGAAAAAACAUAGAAGGCAGAUAGAUUGA [SS2: 1134] |  |  | 41.5 nM | 120 nM
22 | AAAUAAAAUAUAGGAUAUGGAAACAUGAGGAUCACCCAUGUAAAAUAAAAUAAAUAAUAAUAUAACCAGAAGGAUAAAAUAUAA [LRO002_SS NG 2] | 36.1 nM | 33.9 nM |  | 
23 | AUGAAAGUAACGCAGGAUAUCCAGGAUACAACAUGAGGAUCACCCAUGUACAUACGAACGUAUAAGGAGAAGGGUGGAUGAUCUUC [ss2-3] |  |  | 56.7 nM | 48.2 nM
24 | AAAACAUGAGGAUCACCCAUGUAAAGUUCGGAAAGUUAGAGUGAGGAUAUACAAAUUUUUAUUUAGUAGAAGGCACUGGGUACA [JR_SSNG3_Sub032Nu] | 24.8 nM | 26.7 nM |  | 
25 | AAUAUACAUGAGGAUCACCCAUGUUUUGGUGGGUCAGGAUAUAAAAACAAUUACAUAAAGUUAGAAGGGACAAAUA [JR_SS001_Sub004] |  |  | 111 nM | 121 nM
26 | GGAUCCAUCACAGGAUAUGCUGGACUUUGUCCAGCAGAAGGGUGACAUGAGGAUCACCCAUGUACAAAGGAUCCUAUAUUUAAU [Denovo 28] | 45.2 nM | 377 nM |  | 
27 | GAAAUACAUGAGGAUCACCCAUGUUAGGUAAAACAAGGAUAUCUAGAUAAAUAAAAAUAUAGAGAAGGUGUAUAAA [JR_SS001_Sub206] |  |  | 20.6 nM | 25.1 nM
28 | AAAAAAAAAGUGCAGGAUAUCCUCAUGGCUACAUGAGGAUCACCCAUGUGAAGAAAAGCACAUGAGGAGAAGGGCACAAAAAAAAA [Balance beam] |  |  | 12.3 nM | 23.1 nM
29 | AAGAAACAUGAGGAUCACCCAUGUAAUAAUAUGGGAGGAUAUACAAGGACAAUAGUCAAGGUAGAAGGCCUAAGAA [Mat - Same State 1 - Meechl mod - D142] |  |  | 26.7 nM | 249 nM
30 | AACUACAUUAUGAAGGAUAUCCACAUCAAGACAUGAGGAUCACCCAUGUAUACUUAGAUCAUACAGGAGAAGGUCAAGGGUGAAU [JR_SS002_Sub1207] |  |  | 244 nM | 89.2 nM
31 | GAAGACAUAGUACAGGAUAUAUGAAUAGUCACAUGAGGAUCACCCAUGUCCAUUUAUAUGGGCACAUAGAAGGGUGGUAGUUGUC [Mat - Same state - Malcolm Mod - D125] |  |  | 8.69 nM | 35.3 nM
32 | AUAAAAUAAAAGGAGGAUAUCCUUAAUAAAACAUGAGGAUCACCCAUGUAAAAAAUAAUAAAAUGGGAGAAGGCCUAAAAUAAAU [SS2 M 26] |  |  | 24.2 nM | 64.2 nM
33 | AGGAGACAUGAGGAUCACCCAUGUGAGAAGAGGCGAGGAUAUCGAAAGAAAGAAAGAAAACGAGAAGGCGCGAGAA [salish99-SS1-016] |  |  | 28 nM | 42.8 nM
34 | AAAAAACAUGAGGAUCACCCAUGUAAAAAAAUGGGAGGAUAUACAAAAACGAAAGUCAAAGUAGAAGGCCUGAAAA [same state 5] |  |  | 19.3 nM | 172 nM
35 | AAUGAACAUGAGGAUCACCCAUGUUCUAAUAGUUGAGGAUAUGUGGGUGAAAAUAGCACGGCAGAAGGCGAGUGUA [SameState1 Malc#19] |  |  | 101 nM | 80.7 nM
36 | CAUCAUGCGCCUAAGGAUAUGUCUCACAAGACAUGAGGAUCACCCAUGUAGAAUAAAUAAACGAUGCAGAAGGUGGAGCGCAUGA [Cexeri] |  |  | 40.2 nM | 222 nM
37 | AAAACACAUGAGGAUCACCCAUGUGCAAAAUUCGCAGGAUAUUUCUCGAUUAAAUGAUAGGAAGAAGGGUGAUAAA [Nob's Hobby 35 - Jieux - Same State 1] |  |  | 25.8 nM | 33.7 nM
38 | AAAUAAAUGACUAAGGAUAUAUUAGAGAAAACAUGAGGAUCACCCAUGUAAUAAUAAAAAGGGUGAUAGAAGGUAGUCAACAAAC [74%, More Paria 4] |  |  | 132 nM | 48.8 nM
39 | AGAAAACAUGAGGAUCACCCAUGUAGGAAUAUGGGAGGAUAUACAAAGACGAAAGUCAGAGUAGAAGGCCUAAGAA [salish99-SS1-087] |  |  | 24.1 nM | 81.8 nM
40 | AGAAAUAAAAUGGAGGAUAUCCAAAAGAAAACAUGAGGAUCACCCAUGUAAAAGAAAAUAAAAUGGGAGAAGGCCACAAAUAAAG |  |  | 26.8 nM | 31.4 nM
